{"source": "patent US20130216545A1", "about": "“Early Diagnosis and Novel Treatment of Cancer” (priority 2012, published 2013)", "molecules": {"B1": {"name": "recombinant Reg1α: recombinant regenerating islet-derived 1 alpha protein used by Van Ba on rat hippocampus (protein)", "chain": "QEAQTELPQARISCPEGTNAYRSYCYYFNEDRETWVDADLYCQNMNSGNLVSVLTQAEGAFVASLIKESGTDDFNVWIGLHDPKKNRRWHWSSGSLVSYKSWGIGAPSSVNPGYCVSLTSSTGFQKWKDVPCEDKFSFVCKFKN"}}, "key": {"[1]": {"target": "T1, Megi (Homo sapiens, UniProt O43909)", "T1 construct": "Megi protein is expressed in human pancreatic cancer cells; endogenous in cells", "T1 sequence (O43909 1-919)": "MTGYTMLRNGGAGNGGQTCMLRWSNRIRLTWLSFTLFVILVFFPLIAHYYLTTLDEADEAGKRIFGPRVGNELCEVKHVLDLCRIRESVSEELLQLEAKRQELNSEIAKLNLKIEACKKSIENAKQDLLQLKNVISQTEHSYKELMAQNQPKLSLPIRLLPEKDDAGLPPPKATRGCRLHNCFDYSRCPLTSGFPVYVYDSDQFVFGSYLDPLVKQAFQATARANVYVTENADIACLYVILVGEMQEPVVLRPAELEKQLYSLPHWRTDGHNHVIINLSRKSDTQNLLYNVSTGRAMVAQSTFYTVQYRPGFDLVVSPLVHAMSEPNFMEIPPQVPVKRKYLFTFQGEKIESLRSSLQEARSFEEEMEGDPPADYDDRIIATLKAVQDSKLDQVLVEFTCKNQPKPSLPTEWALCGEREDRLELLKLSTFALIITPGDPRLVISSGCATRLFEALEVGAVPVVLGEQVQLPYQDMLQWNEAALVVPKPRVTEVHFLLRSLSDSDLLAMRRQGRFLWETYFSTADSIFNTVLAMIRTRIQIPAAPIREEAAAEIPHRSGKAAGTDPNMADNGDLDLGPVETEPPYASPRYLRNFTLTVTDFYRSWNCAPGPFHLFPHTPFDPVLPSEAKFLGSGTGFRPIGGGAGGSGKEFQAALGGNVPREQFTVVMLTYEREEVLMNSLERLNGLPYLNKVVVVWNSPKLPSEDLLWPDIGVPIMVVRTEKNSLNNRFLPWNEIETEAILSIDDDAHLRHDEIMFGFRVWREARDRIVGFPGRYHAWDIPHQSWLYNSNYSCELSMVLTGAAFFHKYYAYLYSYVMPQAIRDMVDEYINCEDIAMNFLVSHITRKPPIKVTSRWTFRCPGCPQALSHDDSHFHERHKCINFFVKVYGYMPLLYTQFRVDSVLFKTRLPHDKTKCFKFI", "experiment": "Western blot analysis of Megi in cytosolic and nuclear fractions of adenocarcinoma cells", "assay_type": "cell-based", "details": "Reg peptide 167 nM; 30 minutes; vs cells not treated with Reg peptide; FIG. 7g vs 7e", "description": "The Western blot analysis of cytosolic and nuclear fractions isolated at the indicated time points with Reg peptide accelerating time of Megi translocation from the cell surface membrane to nucleus. Adenocarcinoma cells were seeded in T75 flasks in Dulbecco's Modified Eagle media containing 10% fetal bovine serum. The cells were incubated at […], 5% CO2 for 24 hours and then treated with Reg peptide at the final concentration of 167 nM. This treatment was performed once a day for four days. On the fifth day the cells were broken to obtain the cell lysates. In these cell extracts the total protein levels were determined, and 50 micrograms of total protein, were used to perform the western blot analysis. The samples containing 50 micrograms of proteins were diluted in loading buffer and loaded into each well of the gel. For gels run under reducing conditions, buffer also contained 5% of the reducing agent beta-mercaptoethanol\nAnalyses were performed from cytoplasmic extracts were obtained in 10 mM HEPES (pH 8.0), 1 mM EDTA, 1.5 mM MgCl2, 10 mM KCl, 0.5 mM DTT, 200 mM sucrose and 0.5% Nonidet P-40. Nuclear extracts were obtained in 20 mM HEPES (pH 7.9), 0.75 mM MgCl2, 210 mM NaCl, 50 mM KCl, 1 mM EDTA, 10% glycerol, and 0.5 mM of dithiothreitol. […] Secondary signals were developed with chemiluminescence substrate and analyzed by autoradiography."}, "[2]": {"target": "T1, Megi", "experiment": "Cy3 immunofluorescent staining of Megi in human pancreatic adenocarcinoma cells", "assay_type": "cell-based", "details": "167 nM Reg peptide added to human pancreatic adenocarcinoma cells; FIG. 6b vs 6a", "description": "To determine the presence of Megi via immunofluorescence, a continuous tumor-cell line from a human carcinoma of the exocrine pancreas were cultured in Dulbecco's Modified Eagle Medium containing 4.5 g/L glucose, 1:5 g/L sodium bicarbonate, 4 mM L-glutamine, and 10% fetal bovine serum. Cells were seeded at 50% confluence in standard growth medium. Twenty-four hours after seeding, cells were differentiated in serum free medium. Cells were mounted on cover slips and fixed in 4% paraformaldehyde and permeabilized with 0:2% Triton X-100. After being washed and blocked, cells were incubated with rabbit polyclonal anti-Megi antibody and a CY3-conjugated goat-anti-rabbit labeled fluorescent antibody. Antibodies were used at a 1:200 dilution. Coverslips were mounted and staining was analyzed on a Zeiss Axiovert 220M microscope powered by Axiovision 4.0 software with Z-stack acquisition, 3D-deconvolution, and 4D rendering modules.\nUtilizing Cy3 immunofluorescent staining of Megi in human pancreatic adenocarcinoma cells in standard medium, there is immunofluorescent staining of Megi (FIG. 6a), which is well-defined at the cell borders indicating surface expression of Megi on the plasma membrane with visibly undetectable levels of Megi in the nucleus. […]"}, "[3]": {"target": "T1, Megi", "experiment": "Immunofluorescent nuclear analyses of Megi translocation (Cy3 with DAPI overlay)", "assay_type": "cell-based", "details": "cells grown in serum-free medium with 150 μM Reg peptide; FIG. 8c, 8f", "source_text": "Immunofluorescent analyses of Megi are shown in the upper panels (FIG. 8a, FIG. 8b and FIG. 8c) indicated by the Cy3 immunofluorescent staining of Megi. […] The arrows in FIG. 8a and FIG. 8d delineate the cell borders, whereas the nuclei are shown in light grey contrast in FIG. 8d.\nThe middle images (FIG. 8b and FIG. 8e) are cells grown in SFM. Megi is localized in the cytoplasm, as indicated by cytoplasmic Cy3 staining. The arrows in FIG. 8b and FIG. 8e show the lack of staining in the position of the nuclei. […] In the lower image (FIG. 80, there is an overlap of Megi-Cy3 staining and nuclear DAPI staining that corroborates that there is nuclear localization of Megi indicated by the arrows in FIG. 8f. In the lower image (FIG. 8f) of cells grown in SFM and Reg peptide, the arrows indicate the position of the nuclei, which now stains for Megi. Scale bar=20 μm in all images.\nImmunofluorescent analyses are shown in the upper, panels (FIG. 8a, FIG. 8b and FIG. 8c) indicated by the Cy3 immunofluorescent staining of Megi. […]"}, "[4]": {"system": "rabbits", "experiment": "Enzyme ImmunoAssay titers of polyclonal antibodies raised in rabbits to a Megi peptide", "assay_type": "in vivo, rabbit", "details": "for 50% titer: test bleed 31 days after day 0 and day 21 boosts, KLH-conjugated peptide, unconjugated screening antigen", "description": "Data sets were taken from the bleed after the day 0 and day 21 boosts. The animals were injected with a peptide of SEQ ID NO: 4 and were conjugated to keyhole limpet hemocyanin (KLH). The screening antigen is not conjugated to KLH so that the response solely to the peptide and not to KLH can be identified. The 50% titer is a dilution value where the signal is half-way between the peak and the baseline, so the higher the dilution value (titer), the greater the response to the antigen. The positive control is an internal control that was generated from ovalbumin antibodies in rabbit. At a dilution of 1:759,000, the absorbance fell within a range of 0.45 to 0.9. In the case of the response to SEQ ID NO: 4, there was a high response. The data shown in FIG. 9 from the prebleed sample obtained on Dec. 8, 2010 was <100 (negative) for both rabbits, CD 153 and CD 154."}, "[5]": {"system": "Megi receptor", "details": "rat hippocampus; effect abolished by downregulating Megi by shRNA; cited from earlier work"}}, "data": [{"molecule": "Reg peptide: common Reg peptide sequence (SEQ ID NO: 10) selected from Reg1α, Reg1β, Reg3α and RegIV, synthesized by Bachem (IGLHDPTQGTEPNG)", "values": [{"measurement": "nuclear levels of Megi (Megi nuclear translocation)", "setting": "[1]", "result": "higher nuclear levels of Megi"}, {"measurement": "cellular staining of Megi", "setting": "[2]", "result": "greater expression of Megi inside of the cell"}, {"measurement": "subcellular localization of Megi", "setting": "[3]", "result": "translocation of Megi into the nucleus"}]}, {"molecule": "SEQ ID NO: 4: 20 amino acid Megi peptide (amino acids 17-36) used as immunogen to raise polyclonal antibodies in rabbits (CKKSIENAKQDLLQLKNVIS)", "values": [{"measurement": "50% titer", "setting": "[4]; rabbit CD 153", "result": "36,000"}, {"measurement": "50% titer", "setting": "[4]; rabbit CD 154", "result": "125,000"}, {"measurement": "response to the antigen", "setting": "[4]; rabbits immunised with KLH-conjugated peptide", "result": "high response"}]}, {"molecule": "B1", "values": [{"measurement": "neurite outgrowth", "setting": "[5]", "result": "increased neurite outgrowth"}]}]}
